Target: hSSB1 (NABP2/OBFC2B) (Homo sapiens, UniProt Q9BQ15 1-211)
Experiment: EMSA; 0-2 uM hSSB1; 90 fmol DNA in 10 ul; 8-oxoG opposite C (pairing base inferred); EMSA: 50 mM Tris-HCl pH 7.5, 100 mM KCl, 100 ug/ml BSA, 15 min at 37 C; 8% polyacrylamide gel
Conditions: protein: recombinant; tags: N-terminal His6; label: 5' FAM; blunt

Chain of hSSB1 (NABP2/OBFC2B) (Q9BQ15 whole entry): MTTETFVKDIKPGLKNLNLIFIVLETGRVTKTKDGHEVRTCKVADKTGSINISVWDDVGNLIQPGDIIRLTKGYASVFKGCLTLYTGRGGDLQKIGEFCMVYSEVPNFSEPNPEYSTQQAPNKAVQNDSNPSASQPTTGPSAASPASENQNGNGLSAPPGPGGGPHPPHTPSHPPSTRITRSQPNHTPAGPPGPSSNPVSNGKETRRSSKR

B1: 8-oxoG:C dsDNA (dsDNA)
DNA 1: CTCTCCCTTCGCTCCTTTCCTCT
DNA 2: AGAGGAAAGGAGCGAAGGGAGAG
modifications: 8-oxoguanine at position 11 of strand 1 (written G)
B1: binds.
